Legend:
in vivo = assay: in vivo; set-up: species or system mice; details: male, athymic nude (Crl:NU(NCr)-Foxn1nu), mouse, iv, total radioactivity
Description: (§1) The biodistribution of [^99mTcO2(DP^An-PSMAt)2]^+ and [^99mTcO2(DP^MEP-PSMAt)2]^+ was studied using SPECT/CT imaging and ex vivo biodistribution methods. In these studies, [^99mTcO2(DP^An-PSMAt)2]^+ and [^99mTcO2(DP^MEP-PSMAt)2]^+ were used directly from kit-based formulations, without further purification, mimicking procedures used in clinical radiopharmacies and nuclear medicine departments. Mice were injected with [^99mTcO2(DP^An-PSMAt)2]^+ or [^99mTcO2(DP^MEP-PSMAt)2]^+ (4–5 MBq), containing 3 μg (2.6 nmol) of DP^An-PSMAt or 3.5 μg (2.6 nmol) of (DP^MEP-PSMAt) via the tail-vein, and culled 2 h post-injection, followed by dissection, organ/tissue weighing and counting.
The biodistribution of [^99mTcO2(DP^An-PSMAt)2]^+ and [^99mTcO2(DP^MEP-PSMAt)2]^+ was further studied in (i) male SCID/Beige mice bearing DU145-PSMA+ prostate cancer xenografts (Fig. 8) and (ii) male nude mice bearing PSMA-expressing LNCaP prostate cancer xenografts (see SI). […]
4.10 In vivo imaging and biodistribution (DU145-PSMA+ and LNCaP)
Preparation of tumour-bearing mice: All animal experiments were ethically reviewed by an Animal Welfare & Ethical Review Board at either King’s College London or Bart’s Cancer Institute and carried out in accordance with the Animals (Scientific Procedures) Act 1986 UK Home Office regulations governing animal experimentation. Subcutaneous prostate cancer xenografts were produced in SCID/beige mice (male, 7–12 weeks old) by injecting 4 × 10^6 DU145-PSMA+ or DU145 cells suspended in PBS (100 μL) on the right shoulder. Imaging and biodistribution studies were performed once a tumour had reached 5–10 mm in diameter (3–4 weeks after injection). Subcutaneous LNCaP prostate cancer xenografts were produced in athymic nude (Crl:NU(NCr)-Foxn1nu) mice (male, 6–7 weeks old) by injecting 5 × 10^6 LNCaP cells suspended in PBS:matrigel (1:1, 200 μL) on the right flank.
Biodistribution studies using 99mTc radiotracers were performed once a tumour had reached 150– 300 mm3 in volume (2–7 weeks after injection).
SCID/beige mice bearing DU145-PSMA+ prostate cancer tumour xenografts
SPECT/CT scanning and biodistribution studies: The 99mTc radiotracers (3.9–4.5 MBq, 3 mice per group, containing DPAn-PSMAt = 3.0 µg or DPMEP-PSMAt = 3.5 µg) were administered via tail vein injection under isoflurane anaesthesia. […]
in helical scanning mode). At 2 h post-injection, the animals were euthanized by cervical dislocation, organs/tissues harvested and weighed, and radioactivity counted using a gamma […]
ii. […] After scanning, the organs/tissues were harvested, weighed and radioactivity counted […]
Urine was collected and directly analysed by reverse-phase radio-HPLC (method 2). Data were analysed in GraphPad Prism 9 (version 9.1.1) and expressed as mean ± standard deviation (SD). […]

PSMA-expressing tumours = assay: Ex vivo biodistribution across both mouse models (DU145-PSMA+ and LNCaP xenografts); type: in vivo, mice; details: both tracers, 2 h post-injection
Description: as §1, with “counting. […]” for “counting.”
For all animals, significant concentrations of ^99mTc radioactivity (2–5 %ID g^−1) were measured in PSMA-expressing tumours 2 h post-injection, and although ^99mTc tumour concentrations were consistently higher for animals administered [^99mTcO2(DP^An-PSMAt)2]^+, there were no statistically significant differences between [^99mTcO2(DP^An-PSMAt)2]^+ and [^99mTcO2(DP^MEP-PSMAt)2]^+ in either mouse model. For both tracers, there were also significant concentrations of ^99mTc radioactivity in the spleen, which is known to express low levels of PSMA and accumulate PSMA-targeted radiotracers,[9,10] and the liver. […]

**Q.** What does the source list for `COc1ccc(P(/C(C(=O)O)=C(/C(=O)NCCOCCOCCOCCOCCC(=O)NCCCC[C@H](NC(=O)N[C@@H](CCC(=O)O)C(=O)O)C(=O)O)P(c2ccc(OC)cc2)c2ccc(OC)cc2)c2ccc(OC)cc2)cc1` [[^99mTcO2(DP^An-PSMAt)2]^+, metal not drawn]?
**A.** tissue uptake at 2 h (in vivo; Kidney): 87.6 ± 13.3 %ID/g; tissue uptake at 2 h (in vivo; Liver): 0.9 ± 0.15 %ID/g; ^99mTc radioactivity concentration in kidneys (PSMA-expressing tumours): 40–90 %ID g^−1

**Q.** What does the source list for `COCCOc1ccc(P(/C(C(=O)O)=C(/C(=O)NCCOCCOCCOCCOCCC(=O)NCCCC[C@H](NC(=O)N[C@@H](CCC(=O)O)C(=O)O)C(=O)O)P(c2ccc(OCCOC)cc2)c2ccc(OCCOC)cc2)c2ccc(OCCOC)cc2)cc1` [[^99mTcO2(DP^MEP-PSMAt)2]^+, metal not drawn]?
**A.** tissue uptake at 2 h (in vivo; Kidney): 46.4 ± 23.2 %ID/g; tissue uptake at 2 h (in vivo; Liver): 7.38 ± 3.98 %ID/g; ^99mTc radioactivity concentration in kidneys (PSMA-expressing tumours): 40–90 %ID g^−1
